According to patent US11911450B2, “Method for managing pain” (UNIVERSITY OF MIAMI, priority 2017, dated 2024):

B1: Car10: carbonic anhydrase 10, rodent ortholog, overexpressed (V5-tagged) protein (protein)
chain: MEIVWEVLFLLQANFIVCISAQQNSPKIHEGWWAYKEVVQGSFVPVPSFWGLVNSAWNLCSVGKRQSPVNIETSHMIFDPFLTPLRINTGGRKVSGTMYNTGRHVSLRLDKEHLVNISGGPMTYSHRLEEIRLHFGSEDSQGSEHLLNGQAFSGEVQLIHYNHELYTNVTEAAKSPNGLVVVSIFIKVSDSSNPFLNRMLNRDTITRITYKNDAYLLQGLNIEELYPETSSFITYDGSMTIPPCYETASWIIMNKPVYITRMQMHSLRLLSQNQPSQIFLSMSDNFRPVQPLNNRCIRTNINFSLQGKDCPNNRAQKLQYRVNEWLLK
modifications: left off: small tags and cut ends
notes: carbonic anhydrase 10, rodent ortholog, overexpressed (V5-tagged) protein
B2: CA10: human carbonic anhydrase 10, overexpressed (V5-tagged) protein; SEQ ID NO: 9 (protein)
chain: B1 chain
modifications: V5 tag

Columns and labels:
[1] = morphine dose vs paw withdrawal latency; assay type: in vivo, mouse; conditions: allometric conversion to 60 kg human
Description: Behavioral tests: Thermal and mechanical sensitivity was measured by Hargreaves test and von Frey filament threshold calculations respectively. See, e.g., Boyce-Rustay et al. Methods Mol Biol. 2010; 617:41-55; Hargreaves et al., Pain. 1988; 32(1):77-88; and Chaplan et al., J Neurosci Methods. 1994; 53(1):55-63. Tests were performed in a quiet room with daylight-like illumination. Animals were habituated to the behavioral room and apparatus for at least 60 minutes for 1 week before a blinded investigator collected data. The thermal sensitivity test was performed using an IITC Plantar Analgesia Meter apparatus (IITC Life sciences, Woodland Hills, CA) with a plastic box placed on a glass plate of constant temperature (30° C.). The mouse plantar surface was exposed to a beam of radiant heat to induced paw withdrawal. Baseline latencies were adjusted to 5-9 sec with a maximum of 20 sec as cutoff to prevent potential injury. The latency time in seconds from the onset of the intense light beam to paw withdrawal was defined as the withdrawal latency of the paw. […] The mouse hind paw was pressed with one of a series of von Frey filaments with logarithmically incrementing stiffness (Stoelting Co, Wood Dale, IL) presented perpendicular to the plantar surface of each hind paw for 1-2 seconds, the 50% threshold was determined using the Up- and Down method.

[2] = test system: ITPR1-mediated cytoplasmic calcium release; assay: ATP-induced cytoplasmic calcium release in HEK293 cells (Fura-2 imaging); assay type: cell-based, human; conditions: 1 μM ATP, overexpression vs empty vector
Description: Cell culture and transfections: Human neuronal-derived (e.g., NBL), human non-neuronal derived (e.g., HEK293) cells, or dispersed rodent primary DRG cells can be used. HEK293 cells (cat #CRL-1573 ATCC Manassas, VA) were cultured in Dulbecco's modified Eagle's medium (DMEM-Glutamax cat #0566; Invitrogen) supplemented with 10% fetal bovine serum, FBS (cat #16140 ThermoFisher scientific, Waltham, MA) and 1% penicillin/streptomycin (cat #15140 ThermoFisher scientific, Waltham, MA). Cells were seeded in six-well plates at density of 1.0×10^5 cells per well. The following day, cells were transfected with plasmids via lipofectamine LTX reagent and plus (cat #15338 ThermoFisher scientific, Waltham, MA). For each transfection 2 μg of AAV2-ITR (control), AAV2-V5-Car10, or AAV2-V5-CA10 vectors was used. In various embodiments of the disclosure described herein, 2 μg of expression vectors (including positive and negative controls) in instances when AAV2 is not the viral vector employed.
Pharmacodynamics—Bioassay of Calcium Release: Fifteen mm glass coverslips (cat #72228 Electron Microscopy Sciences, Hatfield, PA) were coated with poly-D-Lysine (Sigma) followed by Laminin and 1×10^5 cells were seeded on each coverslip. Twenty-four hrs later, cells were transfected with AAV2-ITR, AAV2-V5-Car10, or AAV2-V5-CA10 vectors as previously described. In embodiments wherein AAV2 is not employed, other expression vectors (including viral vectors) are used. Fura-2AM (cat #F1221 ThermoFisher scientific, Waltham, MA) was dissolved in DMSO (50 μg in 50 μl) and 1% pluronic acid-127 (cat #P2443 Sigma, St Louis, MO) as the stock solution. Forty eight hrs after seeding, cells were loaded with 2 μM Fura-2AM dye for 45 min at room temperature in the dark in a standard Ca+2 buffer solution containing: 125 mM NaCl, 2 mM MgCl, 4.5 mM KCl, 10 glucose, 20 mM HEPES, 2 mM CaCl2, pH 7.4.25. Following dye loading, coverslips were washed with Ca^+2 buffer solution. […] Regions of interest over the field of view were selected and the mean pixels intensity at each frame was measured. Data was plotted as ratio fluorescence intensity versus time and subsequently converted to a relative scale.
To further examine whether FLAG-CA8-204 (data not shown), V5-Car10 and V5-CA10 overexpression can inhibit ATP-induced calcium release, HEK293 cells were infected with each if these constructs and real-time intracellular calcium concentrations at baseline and in response to ATP stimulation were measured (FIG. 2). […]

| Molecule | paw withdrawal latency elevation compared to morphine human oral equivalent dose [1] | ATP-induced cytoplasmic calcium release (Fura-2 340/380 ratio) [2] | ATP-induced cytoplasmic calcium release (Fura-2 340/380 ratio) ([2]; listed as V5-Car10) | ATP-induced cytoplasmic calcium release (Fura-2 340/380 ratio) ([2]; listed as V5-CA10) |
| --- | --- | --- | --- | --- |
| B1 | produces profound analgesia | inhibits ITPR1-mediated cytoplasmic calcium release | inhibits ATP-induced cytoplasmic calcium release | – |
| B2 | produces profound analgesia | inhibits ITPR1-mediated cytoplasmic calcium release | – | inhibits ATP-induced cytoplasmic calcium release |
